Results from patent publication US20120093799A1, “RECOMBINANTLY MODIFIED PLASMIN” (priority 2007, published 2012).

How the values were obtained:
[1] = pNPGB active site titration; type: biochemical
Experimental: (§1) Correcting kcat for percent active sites, a kcat of about 725 min^−1 was determined. This value was very close to the value determined in the same assay for full-length plasmin, 820±23 min^−1 and for micro-plasmin (lacking all five kringles), 795±24 min^−1.

[2] = amidolytic activity with plasmin substrate S-2251, steady-state kinetics; type: biochemical; conditions: substrate S-2251, PBS buffer, pH 7.4, 25° C.
Experimental: The amidolytic activity of (TAL6003)-plasmin was examined using the plasmin substrate D-Val-Leu-Lys-p-nitroanilide (S-2251) (DiaPharma, West Chester, Ohio).
as §1

[3] = as above; type: biochemical; conditions: S-2251, PBS, pH 7.4, 25° C.; before correction for percent active sites
[4] = target: T1, α2-antiplasmin (Homo sapiens, UniProt P08697); test: rate of inhibition by α2-antiplasmin (method of Wiman and Collen, S-2251 activity at time points); type: biochemical; conditions: 22° C. in PBS buffer, pH 7.4
T1 sequence (P08697 40-491): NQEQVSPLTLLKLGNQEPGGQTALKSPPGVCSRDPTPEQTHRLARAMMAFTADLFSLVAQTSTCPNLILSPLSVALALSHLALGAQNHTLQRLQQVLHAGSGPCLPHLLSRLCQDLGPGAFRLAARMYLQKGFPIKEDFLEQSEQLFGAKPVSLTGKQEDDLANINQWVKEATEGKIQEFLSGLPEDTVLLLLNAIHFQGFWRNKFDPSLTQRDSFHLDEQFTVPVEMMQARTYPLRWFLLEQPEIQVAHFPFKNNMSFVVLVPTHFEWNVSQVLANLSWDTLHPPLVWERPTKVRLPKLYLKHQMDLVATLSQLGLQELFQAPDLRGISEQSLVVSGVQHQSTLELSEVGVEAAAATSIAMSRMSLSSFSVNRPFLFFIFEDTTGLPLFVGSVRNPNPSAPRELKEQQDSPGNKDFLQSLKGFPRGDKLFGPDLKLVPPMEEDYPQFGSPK
Experimental: The rate of inhibition of (TAL6003)-plasmin by α2-antiplasmin was determined to be 1.8±0.06×10^7 M^−1 s^−1 using the method of Wiman and Collen (Wiman, B. and D. Collen, Eur. J. Biochem. 84: 573-578 (1978)) in which plasmin and α2-antiplasmin are mixed then assayed for S-2251 activity at specific time points (Table 3).
Literature values are taken from Anonick, et al., Thrombosis Res. 59: 449 (1990). All rates were measured according to the methods published in Anonick, et al.

[5] = stability and formulation pH; type: physicochemical
Excerpt: As shown previously for plasmin by Novokhatny et al., J. Thromb. Haemost. […] When mixed with plasma or neutral pH buffers, (TAL6003)-plasmin is quickly re-activated.

rate of inhibition by α2-antiplasmin [4]: 1.8±0.06×10^7 M^−1 s^−1
B1: (TAL6003)-plasmin: two-chain active enzyme obtained by streptokinase activation of (TAL6003)-plasminogen (protein)
chain: MRDVVLFEKKVYLSECKTGNGKNYRGTMSKTKNGITCQKWSSTSPHRPRFSPATHPSEGLEENYCRNPDNDPQGPWCYTTDPEKRYDYCDVPQCAAPSFDCGKPQVEPKKCPGRVVGGCVAHPHSWPWQVSLRTRFGMHFCGGTLISPEWVLTAAHCLEKSPRPSSYKVILGAHQEVNLEPHVQEIEVSRLFLEPTRKDIALLKLSSPAVITDKVIPACLPSPNYVVADRTECFITGWGETQGTFGAGLLKEAQLPVIENKVCNRYEFLNGRVQSTELCAGHLAGGTDSCQGDSGGPLVCFEKDKYILQGVTSWGLGCARPNKPGVYVRVSRFVTWIEGVMRNN
modifications: Polypeptide having a single N-terminal kringle domain homologous to a kringle domain of a native human plasminogen
percent of functional active sites [1]: 67%
Km [2]: 141 µM
kcat for the preparation [3]: about 725 min−1
storage stability in the final formulation ([5]; pH 3.6, acidified with acetic acid-saline, low buffering capacity): allows safe storage of active plasmins for prolonged periods of time
stability at physiological pH ([5]; physiological pH): prone to auto-degradation
